Experimental data: patent publication US6340783B1, “Rodent models of human amyloidoses” (University of Washington, priority 1992, dated 2002)

Tests used:
[1] = molecular target: T1, Beta-Amyloid Protein (1-28) (Homo sapiens, UniProt P05067); test: Competitive inhibition of 125I-labeled HSPG binding to BAP (1-28) affinity column; conditions: absence of unlabeled competing ligand, n=5
T1 construct: residues 1-28 of BAP or residues 597-624 of BAPP; purchased Bachem Inc., Torrance, Calif; host or cells: synthetic peptide
Experimental: ^125I-labeled HSPGs in the presence of increasing concentrations of unlabeled GAGs, or large low density HSPG (from EHS sarcoma) were applied to an Affi-gel 10 column containing BAP (residues 1-28). After nonbound PGs were eluted from the column using TBS+0.1% TX-100, bound PGs were eluted with a step gradient using 15 ml of 1M MgCl2 in TBS+0.1% TX-100, followed by 15 ml of 4M MgCl2 in TBS+0.1% TX-100, and then 10 ml of 8M urea buffer containing 3M NaCl. […] Bars indicate standard error of the mean.
In order to test the specificity of HSPG binding to BAP (1-28), competitive inhibition experiments were also performed. 125-I labeled HSPGs (100,000-200,000 dpm) were mixed with (a) HSPG from EHS sarcoma (Mr approximately 700,000) (Kato et al., 1988) (gift of Dr. Koji Kimata, Aichi, Japan), (b) heparin from porcine intestinal mucosa (Mr˜11,000; Sigma, St. Louis, Mo.), (c) chondroitin-6-sulfate from shark cartilage (Mr˜59,000; Sigma, St. Louis, Mo.), or (d) […] dextran sulfate (Mr˜110,000; Pharmacia Fine Chemicals, Uppsala, Sweden). The samples were incubated on a rotator for 2 hours at room temperature and then applied to the BAP (1-28) column. Columns were run and eluted with step gradients (1 to 4 M MgCl2) as described above.
Purified iodinated HSPGs were combined with various concentrations of unlabeled competing ligands and applied to a BAP (1-28) affinity column (FIG. 10).

[2] = molecular target: T2, mutated β/A4 (1-28) (Homo sapiens, UniProt P05067, H684G/H685G/K687G); test: Affinity column with β/A4 (1-28) mutated in the putative heparin binding domain; conditions: histidine, histidine and lysine changed to glycine; versus normal β/A4 (1-28) column
T2 construct: residues 1-28 of BAP or residues 597-624 of BAPP
From the text: As described above, residues 12-17 of the β/A4 (-valine-histidine-histidine-glutamine-lysine-leucine-) conform to a consensus sequence for a potential heparin/heparan sulfate binding domain. This has been recently confirmed by our studies, whereby comparisons were made using column affinity chromatography. One affinity column contained β/A4 (1-28), whereas the other affinity column contained β/A4 (1-28) with three amino acid substitutions of the putative heparin binding domain (i.e. the basic amino acids histidine, histidine and lysine where changed to glycine, and therefore were now uncharged instead of basic amino acids). ^125I-HSPG bound with high affinity to normal β/A4 (1-28) affinity column, whereas a 50-60% decrease in HSPG binding to the mutated β/A4 (1-28) was observed.

high Mr HSPG: ˜600-800 kDa heparan sulfate proteoglycan isolated from culture media of bovine aortic endothelial cells
applied 125I-HSPG bound to the BAP column [1]: 21.6±4.4%
decrease in HSPG binding to mutated β/A4 (1-28) [2]: 50-60%
